Columns and labels:
FITC-casein [1] = assay: fluorescence polarisation; fluorescence anisotropy; ClpB E279Q/E678Q titrated into 100-nM FITC-casein with 5-mM ATP and 80-μM DBeQ; fit of a binding isotherm with a Hill number
FITC-casein [2] = assay: fluorescence polarisation; fluorescence anisotropy; ClpB E279Q/E678Q titrated into 100-nM FITC-casein with 5-mM ATP, without DBeQ; fit of a binding isotherm with a Hill number

Work on “ClpB E279Q/E678Q (from UniProt P63284 1-857) (enzyme)” yielded a Kd (FITC-casein [1]) of 78.5 nM and a Kd (FITC-casein [2]) of 77.3 nM.
